Our source for the Kd and yeast surface expression values is the FLAb antibody collection (doi:10.7554/elife.23156).

Some results are limits rather than exact numbers.

Sequences and labels used below:
B1: scFv; the commonest letter at each place (parent)
chain 1: EVKLDETGGGLVQPGRPMKLSCVASGFTFSDYWMNWVRQSPEKGLEWVAQIRNKPYNYETYYSDSVKGRFTISRDDSKSSVYLQMNNLRVEDMGIYYCTGSYYGMDYWGQGTSVTVS
chain 2: DVVMTQTPLSLPVSLGDQASISCRSSQSLVHSNGNTYLRWYLQKPGQSPKVLIYKVSNRFSGVPDRFSGSGSGTDFTLKISRVEAEDLGVYFCSQSTHVPWTFGGGTKLEIK

The variants in the data set “fluorescein” derive from B1. Description: Kd (Tite-Seq). Conditions: with fluorescein; format: scFv 4-4-20, heavy + light.
Variants of B1 are the subject of data set [1]. Description: yeast surface expression (ratio to wild type); higher = more expressed. Conditions: format: scFv 4-4-20, heavy + light.

For orientation: Kd means the equilibrium constant for the complex coming apart. Regarding chain 1 D106Q, the Kd in the data set with fluorescein was 5.66 µM. Also, the yeast surface expression in data set [1] turned out to be 0.846.

Turning to chain 1 D106H, the Kd in the data set with fluorescein was at least 10 µM. The yeast surface expression in data set [1] came to 0.557.

chain 1 D106I: the dissociation constant Kd with fluorescein is at least 10 µM. Besides, in data set [1], the yeast surface expression is 0.577.

Regarding chain 1 D106M, the Kd in the data set with fluorescein is at least 10 µM. Also, in data set [1], the yeast surface expression came out at 0.574.

On to chain 1 D106C, for which, in the data set with fluorescein, the Kd stood at 2.17 µM. Besides, the yeast surface expression in data set [1] was 0.955.

As to chain 1 D106V, in the data set with fluorescein, the Kd is at least 10 µM. The yeast surface expression in data set [1] is 0.734.

chain 1 D106N: the Kd with fluorescein worked out at 0.00131 µM. The yeast surface expression in data set [1] was determined as 0.681.

chain 1 D106T: the Kd with fluorescein was 0.00785 µM. Also, the yeast surface expression in data set [1] stood at 1.09.

Turning to chain 1 D106G, in the data set with fluorescein, the Kd is at least 10 µM. For the same variant, the yeast surface expression in data set [1] was 0.655.

For the variant chain 1 D31N M34A, the Kd in the data set with fluorescein amounted to 0.00194 µM. In data set [1], the yeast surface expression came to 0.614.

On to chain 1 D31I W36E, for which, in the data set with fluorescein, the Kd was at least 10 µM. In data set [1], the yeast surface expression amounted to 0.663.

For the variant chain 1 D106T G109M, in the data set with fluorescein, the Kd was at least 10 µM. Besides, the yeast surface expression in data set [1] worked out at 0.285.

Turning to chain 1 D106T G109R, the Kd with fluorescein is at least 10 µM. For the same variant, the yeast surface expression in data set [1] came to 0.26.

With chain 1 D31E W33C, the Kd with fluorescein was at least 10 µM. Moreover, in data set [1], the yeast surface expression was 0.827.

chain 1 D31E W33N: the Kd with fluorescein is at least 10 µM. The yeast surface expression in data set [1] is 0.845.

For the variant chain 1 D31M M34K, the Kd in the data set with fluorescein was at least 10 µM. Further, the yeast surface expression in data set [1] was found to be 0.564.

For chain 1 D31N W36I, the Kd with fluorescein came out at 0.0287 µM. The yeast surface expression in data set [1] is 0.679.

On to chain 1 D31N W36C, for which the equilibrium dissociation constant (Kd) with fluorescein is at least 10 µM. In data set [1], the yeast surface expression worked out at 0.275.

Consider chain 1 D31Q Y32R V37Q, for which the dissociation constant (Kd) with fluorescein is at least 10 µM. The yeast surface expression in data set [1] was 0.133.

As to chain 1 D31F N35I, the Kd in the data set with fluorescein was at least 10 µM. Also, the yeast surface expression in data set [1] came to 1.11.

On to chain 1 D31F N35S, for which, in the data set with fluorescein, the Kd was at least 10 µM. In data set [1], the yeast surface expression was determined as 0.367.

As to chain 1 D106G Y107W, in the data set with fluorescein, the Kd is at least 10 µM. Further, the yeast surface expression in data set [1] was 0.338.

With chain 1 D106G Y107S, the Kd in the data set with fluorescein was at least 10 µM. The yeast surface expression in data set [1] worked out at 0.474.

With chain 1 D106F G109A, in the data set with fluorescein, the Kd is at least 10 µM. For the same variant, the yeast surface expression in data set [1] stood at 0.112.

With chain 1 D31R N35S V37L, the Kd in the data set with fluorescein is at least 10 µM. Moreover, the yeast surface expression in data set [1] came out at 0.577.

As to chain 1 D31Q W33T, the Kd with fluorescein was at least 10 µM. Also, the yeast surface expression in data set [1] came out at 0.793.

In the case of chain 1 D31Y M34K, the Kd with fluorescein worked out at 0.676 µM. Further, the yeast surface expression in data set [1] came to 0.834.

Regarding chain 1 D31V N35C, the Kd with fluorescein is at least 10 µM. Also, the yeast surface expression in data set [1] amounted to 0.424.

For chain 1 D106A Y107F, the Kd in the data set with fluorescein was determined as 1.91 µM. The yeast surface expression in data set [1] worked out at 0.508.

With chain 1 D106A Y107I, the Kd with fluorescein was 6.61 µM. Also, in data set [1], the yeast surface expression turned out to be 0.646.

With chain 1 D106H Y107A, in the data set with fluorescein, the Kd was at least 10 µM. Also, the yeast surface expression in data set [1] was found to be 0.455.

Take chain 1 D106H Y107D: the Kd in the data set with fluorescein was at least 10 µM. The yeast surface expression in data set [1] came to 0.284.

chain 1 D106N W108K: the Kd in the data set with fluorescein is at least 10 µM. Also, in data set [1], the yeast surface expression was determined as 0.446.

On to chain 1 D106N W108Q, for which the dissociation constant (Kd) with fluorescein was at least 10 µM. Besides, the yeast surface expression in data set [1] amounted to 0.453.

As to chain 1 D106N W108I, in the data set with fluorescein, the equilibrium dissociation constant (Kd) amounted to 0.00871 µM. The yeast surface expression in data set [1] came to 0.556.

In the case of chain 1 D106R G109H, in the data set with fluorescein, the Kd was at least 10 µM. In data set [1], the yeast surface expression stood at 0.486.

On to chain 1 D31S V37H, for which the Kd in the data set with fluorescein stood at 9.02 µM. Moreover, in data set [1], the yeast surface expression worked out at 0.644.

On to chain 1 D31S V37N, for which, in the data set with fluorescein, the Kd is at least 10 µM. Besides, the yeast surface expression in data set [1] is 0.629.

Regarding chain 1 D31S V37P, the Kd with fluorescein is at least 10 µM. For the same variant, the yeast surface expression in data set [1] turned out to be 0.675.

With chain 1 D31T W33N, in the data set with fluorescein, the Kd was at least 10 µM. For the same variant, the yeast surface expression in data set [1] came to 0.661.

As to chain 1 D31T W33L, the Kd with fluorescein is at least 10 µM. Moreover, the yeast surface expression in data set [1] turned out to be 0.518.

Regarding chain 1 D31T W33E, the Kd with fluorescein is at least 10 µM. Moreover, the yeast surface expression in data set [1] came out at 0.544.

chain 1 D31T W33F: the Kd in the data set with fluorescein was found to be 2.11 µM. The yeast surface expression in data set [1] worked out at 0.629.

In the case of chain 1 D31Q W36V, the Kd in the data set with fluorescein was at least 10 µM. Besides, in data set [1], the yeast surface expression was 0.596.

For the variant chain 1 D106Q W108G, in the data set with fluorescein, the Kd is at least 10 µM. Besides, the yeast surface expression in data set [1] amounted to 0.384.

For chain 1 D31Y W33R, the Kd in the data set with fluorescein was at least 10 µM. Also, in data set [1], the yeast surface expression turned out to be 0.325.

For chain 1 D31Y W33C, in the data set with fluorescein, the Kd was at least 10 µM. Besides, in data set [1], the yeast surface expression was found to be 0.597.

As for chain 1 D31Y W33H, the Kd in the data set with fluorescein is at least 10 µM. In addition, the yeast surface expression in data set [1] was found to be 0.579.

In the case of chain 1 D31V Y32P, the dissociation constant (Kd) with fluorescein was at least 10 µM. The yeast surface expression in data set [1] is 0.759.

Turning to chain 1 D31V Y32L, the Kd with fluorescein was found to be 0.972 µM. Moreover, the yeast surface expression in data set [1] came to 0.584.

Consider chain 1 D31N Y32L, for which the Kd in the data set with fluorescein was 0.00546 µM. The yeast surface expression in data set [1] was 0.878.

For the variant chain 1 D31N Y32M, the Kd with fluorescein stood at 0.00672 µM. In data set [1], the yeast surface expression was 0.945.

For the variant chain 1 D106T Y107V, the Kd with fluorescein came out at 5.37 µM. Also, in data set [1], the yeast surface expression amounted to 0.829.

As for chain 1 D31I Y32A, the Kd with fluorescein came out at 0.00444 µM. For the same variant, in data set [1], the yeast surface expression is 0.779.

In the case of chain 1 D31I Y32F, the Kd with fluorescein was at least 10 µM. The yeast surface expression in data set [1] came to 0.369.

chain 1 D106W Y107F: the Kd in the data set with fluorescein was at least 10 µM. Further, the yeast surface expression in data set [1] worked out at 0.264.

Take chain 1 D106W Y107I: the Kd with fluorescein was at least 10 µM. The yeast surface expression in data set [1] is 0.31.

Take chain 1 D106W Y107L: the Kd with fluorescein is at least 10 µM. Besides, in data set [1], the yeast surface expression was found to be 0.308.
